T1: FcgRIIa R (human, UniProt P12318)
T1 chain: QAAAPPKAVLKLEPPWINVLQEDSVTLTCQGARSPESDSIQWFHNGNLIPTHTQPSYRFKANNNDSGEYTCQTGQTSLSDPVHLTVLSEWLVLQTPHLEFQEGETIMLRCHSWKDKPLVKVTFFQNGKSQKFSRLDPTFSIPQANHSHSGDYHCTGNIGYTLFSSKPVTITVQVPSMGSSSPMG

T2: FcgRIa (human, UniProt P12314)
T2 chain: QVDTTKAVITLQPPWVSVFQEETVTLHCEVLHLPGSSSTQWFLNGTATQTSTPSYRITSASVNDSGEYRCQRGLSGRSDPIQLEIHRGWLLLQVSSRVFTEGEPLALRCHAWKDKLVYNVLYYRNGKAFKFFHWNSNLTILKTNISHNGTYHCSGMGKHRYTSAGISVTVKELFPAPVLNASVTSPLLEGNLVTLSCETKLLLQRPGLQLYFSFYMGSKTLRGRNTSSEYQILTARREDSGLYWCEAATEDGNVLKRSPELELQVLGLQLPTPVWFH

T3: FcgRIIa H (human, UniProt P12318)
T3 chain: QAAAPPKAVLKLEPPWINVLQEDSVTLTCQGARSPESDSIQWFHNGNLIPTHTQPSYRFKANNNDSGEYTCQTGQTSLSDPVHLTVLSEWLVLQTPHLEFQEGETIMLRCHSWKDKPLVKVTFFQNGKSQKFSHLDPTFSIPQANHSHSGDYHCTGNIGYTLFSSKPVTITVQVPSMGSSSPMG

T4: FcgRIIb (human, UniProt P31994)
T4 chain: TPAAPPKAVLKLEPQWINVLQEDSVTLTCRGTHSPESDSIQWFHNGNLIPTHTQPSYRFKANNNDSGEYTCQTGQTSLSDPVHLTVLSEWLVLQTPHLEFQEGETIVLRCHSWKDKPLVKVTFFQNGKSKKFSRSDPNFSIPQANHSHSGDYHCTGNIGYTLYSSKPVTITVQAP


Key:
Assay in all cases: SPR
FcgRIIa R = target: T1, FcgRIIa R
FcgRIa = target: T2, FcgRIa
FcgRIIIa F = FcgRIIIa F (human, UniProt P08637)
Sequence of FcgRIIIa F (P08637 17-208): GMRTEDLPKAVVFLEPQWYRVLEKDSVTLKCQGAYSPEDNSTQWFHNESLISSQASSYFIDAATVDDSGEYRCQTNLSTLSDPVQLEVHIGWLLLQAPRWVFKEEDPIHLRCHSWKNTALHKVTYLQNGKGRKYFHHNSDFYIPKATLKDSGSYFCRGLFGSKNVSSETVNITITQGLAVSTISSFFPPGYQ

FcgRIIa H = target: T3, FcgRIIa H
FcgRIIb = target: T4, FcgRIIb
FcgRIIIa V = FcgRIIIa V (human, UniProt P08637)
Sequence of FcgRIIIa V (P08637 17-208 F176V): as the sequence (P08637 17-208) above, with F160V counted along it

| Kd (FcgRIIa R) [nM] | Kd (FcgRIa) [nM] | Kd (FcgRIIIa F) [nM] | Kd (FcgRIIa H) [nM] | Kd (FcgRIIb) [nM] | Kd (FcgRIIIa V) [nM] | Binder |
| --- | --- | --- | --- | --- | --- | --- |
| 17 | 0.012 | 9.7 | 27 | 230 | 2.6 | GpH7-Kn037/GpH7-Hl036/GpL16-k0 (antibody) chain 1: QVQLVQSGAEVKKPGASVTVSCKASGYTFTDYEMHWIRQPPGEGLEWIGAIDPKTGDTAYSESFQDRVTLTADKSTSTAYMELSSLTSEDTAVYYCTRFYSYTYWGQGTLVTVSSASTKGPSVFPLAPSSKSTSGGTAALGCLVKDYFPEPVTVSWNSGALTSGVHTFPAVLQSSGLYSLSSVVTVPSSSLGTQTYICNVNHKPSNTKVDKKVEPKSCDKTHTCPPCPAPELLAGPDVFLFPPKPKDTLMISRTPEVTCVVVDVSHEDPEVKFNWYVDGVEVHNAKTKPREEQYNSTYRVVSVLTVLHQDWLNGKEYKCKVSNKALPAPEEKTISKAKGQPREPQVCTLPPSRDELTKNQVSLWCLVKGFYPSDIAVEWESNGQPENNYKTTPPVLDSDGSFFLYSKLTVDKSRWQQGNVFSCSVMHEALHNHYTQKSLSLSP chain 2: QVQLVQSGAEVKKPGASVTVSCKASGYTFTDYEMHWIRQPPGEGLEWIGAIDPKTGDTAYSESFQDRVTLTADKSTSTAYMELSSLTSEDTAVYYCTRFYSYTYWGQGTLVTVSSASTKGPSVFPLAPSSKSTSGGTAALGCLVKDYFPEPVTVSWNSGALTSGVHTFPAVLQSSGLYSLSSVVTVPSSSLGTQTYICNVNHKPSNTKVDKKVEPKSCDKTHTCPPCPAPELLAGPDVFLFPPKPKDTLMISRTPEVTCVVVDVSHEDPEVKFNWYVDGVEVHNAKTKPREEQYNSTYRVVSVLTVLHQDWLNGKEYKCKVSNKALPAPEEKTISKAKGQPREPQVYTLPPSRCELTKNQVSLSCAVKGFYPSDIAVEWESNGQPENNYKTTPPVLDSDGSFFLVSKLTVDKSRWQQGNVFSCSVMHEALHNHYTQKSLSLSP chain 3: DIVMTQSPLSLPVTPGEPASISCQASESLVHSNRNTYLHWYLQKPGQSPQLLIYKVSNRFSGVPDRFSGSGSGTDFTLKISRVEAEDVGVYYCSQNTHVPPTFGQGTKVEIERTVAAPSVFIFPPSDEQLKSGTASVVCLLNNFYPREAKVQWKVDNALQSGNSQESVTEQDSKDSTYSLSSTLTLSKADYEKHKVYACEVTHQGLSSPVTKSFNRGEC |
| 17 | 0.023 | 1.4 | 30 | 260 | 0.66 | GpH7-Kn056/GpH7-Hl055/GpL16-k0 (antibody) chain 1: QVQLVQSGAEVKKPGASVTVSCKASGYTFTDYEMHWIRQPPGEGLEWIGAIDPKTGDTAYSESFQDRVTLTADKSTSTAYMELSSLTSEDTAVYYCTRFYSYTYWGQGTLVTVSSASTKGPSVFPLAPSSKSTSGGTAALGCLVKDYFPEPVTVSWNSGALTSGVHTFPAVLQSSGLYSLSSVVTVPSSSLGTQTYICNVNHKPSNTKVDKKVEPKSCDKTHTCPPCPAPEYYAGPSVFLFPPKPKDTLMISRTPEVTCVVVDVSDEDPEVKFNWYVDGVEVHNAKTKPREELYNATYRVVSVLTVLHQDWLNGKEYKCKVSNKALPAPIEKTISKAKGQPREPQVCTLPPSRDELTKNQVSLWCLVKGFYPSDIAVEWESNGQPENNYKTTPPVLDSDGSFFLYSKLTVDKSRWQQGNVFSCSVMHEALHNHYTQKSLSLSP chain 2: QVQLVQSGAEVKKPGASVTVSCKASGYTFTDYEMHWIRQPPGEGLEWIGAIDPKTGDTAYSESFQDRVTLTADKSTSTAYMELSSLTSEDTAVYYCTRFYSYTYWGQGTLVTVSSASTKGPSVFPLAPSSKSTSGGTAALGCLVKDYFPEPVTVSWNSGALTSGVHTFPAVLQSSGLYSLSSVVTVPSSSLGTQTYICNVNHKPSNTKVDKKVEPKSCDKTHTCPPCPAPELLAGPDVFLFPPKPKDTLMISRTPEVTCVVVDVSHEDPEVKFNWYVDGVEVHNAKTKPREELYNSTYRVVSVLTVLHQDWLNGKEYKCKVSNKALPMPEEKTISKAKGQPREPQVYTLPPSRCELTKNQVSLSCAVKGFYPSDIAVEWESNGQPENNYKTTPPVLDSDGSFFLVSKLTVDKSRWQQGNVFSCSVMHEALHNHYTQKSLSLSP chain 3: DIVMTQSPLSLPVTPGEPASISCQASESLVHSNRNTYLHWYLQKPGQSPQLLIYKVSNRFSGVPDRFSGSGSGTDFTLKISRVEAEDVGVYYCSQNTHVPPTFGQGTKVEIERTVAAPSVFIFPPSDEQLKSGTASVVCLLNNFYPREAKVQWKVDNALQSGNSQESVTEQDSKDSTYSLSSTLTLSKADYEKHKVYACEVTHQGLSSPVTKSFNRGEC |
| 250 | 0.0028 | 4.1 | 470 | 440 | 1.2 | GpH7-Kn032/GpH7-Hl032/GpL16-k0 (antibody) chain 1: QVQLVQSGAEVKKPGASVTVSCKASGYTFTDYEMHWIRQPPGEGLEWIGAIDPKTGDTAYSESFQDRVTLTADKSTSTAYMELSSLTSEDTAVYYCTRFYSYTYWGQGTLVTVSSASTKGPSVFPLAPSSKSTSGGTAALGCLVKDYFPEPVTVSWNSGALTSGVHTFPAVLQSSGLYSLSSVVTVPSSSLGTQTYICNVNHKPSNTKVDKKVEPKSCDKTHTCPPCPAPELLGGPDVFLFPPKPKDTLMISRTPEVTCVVVDVSHEDPEVKFNWYVDGVEVHNAKTKPREEQYNSTYRVVSVLTVLHQDWLNGKEYKCKVSNKALPLPEEKTISKAKGQPREPQVCTLPPSRDELTKNQVSLWCLVKGFYPSDIAVEWESNGQPENNYKTTPPVLDSDGSFFLYSKLTVDKSRWQQGNVFSCSVMHEALHNHYTQKSLSLSP chain 2: QVQLVQSGAEVKKPGASVTVSCKASGYTFTDYEMHWIRQPPGEGLEWIGAIDPKTGDTAYSESFQDRVTLTADKSTSTAYMELSSLTSEDTAVYYCTRFYSYTYWGQGTLVTVSSASTKGPSVFPLAPSSKSTSGGTAALGCLVKDYFPEPVTVSWNSGALTSGVHTFPAVLQSSGLYSLSSVVTVPSSSLGTQTYICNVNHKPSNTKVDKKVEPKSCDKTHTCPPCPAPELLGGPDVFLFPPKPKDTLMISRTPEVTCVVVDVSHEDPEVKFNWYVDGVEVHNAKTKPREEQYNSTYRVVSVLTVLHQDWLNGKEYKCKVSNKALPLPEEKTISKAKGQPREPQVYTLPPSRCELTKNQVSLSCAVKGFYPSDIAVEWESNGQPENNYKTTPPVLDSDGSFFLVSKLTVDKSRWQQGNVFSCSVMHEALHNHYTQKSLSLSP chain 3: DIVMTQSPLSLPVTPGEPASISCQASESLVHSNRNTYLHWYLQKPGQSPQLLIYKVSNRFSGVPDRFSGSGSGTDFTLKISRVEAEDVGVYYCSQNTHVPPTFGQGTKVEIERTVAAPSVFIFPPSDEQLKSGTASVVCLLNNFYPREAKVQWKVDNALQSGNSQESVTEQDSKDSTYSLSSTLTLSKADYEKHKVYACEVTHQGLSSPVTKSFNRGEC |

— US10766960 (dated 2020)
